One data set has as its target T1, CnKBL (Cupriavidus necator, UniProt Q0K313).
T1 construct: gene kbl; gene cloned in pET-28a (NcoI/XhoI), E. coli BL21(DE3), Ni-Sepharose and gel filtration; dimer; PLP on K246
T1 sequence (Q0K313 1-399): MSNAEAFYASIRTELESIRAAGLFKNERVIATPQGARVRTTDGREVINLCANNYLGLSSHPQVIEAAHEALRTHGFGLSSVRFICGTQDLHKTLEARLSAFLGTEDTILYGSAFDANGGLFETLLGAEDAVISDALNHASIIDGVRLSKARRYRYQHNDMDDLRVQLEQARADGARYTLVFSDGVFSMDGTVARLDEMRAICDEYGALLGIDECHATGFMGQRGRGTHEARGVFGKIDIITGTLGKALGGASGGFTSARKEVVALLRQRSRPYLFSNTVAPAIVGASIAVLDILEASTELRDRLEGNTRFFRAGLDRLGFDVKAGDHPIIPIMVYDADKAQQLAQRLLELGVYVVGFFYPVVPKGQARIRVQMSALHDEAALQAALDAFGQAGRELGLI
Briefly: X-ray crystal structure, […] Å. Format: binding. The conditions noted are these: covalent, Schiff base with K246.

Substrate in data set [1]: NCC(=O)O
Put plainly: purified protein. Format: biochemical, Cupriavidus necator. As to conditions: 1 mM acetyl-CoA, 50 mM potassium phosphate pH 8.0, 30 °C.

Substrate in data set [2]: C[C@@H](O)[C@H](N)C(=O)O
Briefly: purified protein. As to conditions: 50 mM potassium phosphate pH 8.0, 30 °C, no CoA. The format is biochemical, Cupriavidus necator.

Substrate in data set [3]: CCC(O)C(N)C(=O)O
Briefly: purified protein. Format: biochemical, Cupriavidus necator. The conditions noted are these: 50 mM potassium phosphate pH 8.0, 30 °C, no CoA.

Substrate in data set [4]: CC(=O)SCCNC(=O)CCNC(=O)[C@H](O)C(C)(C)COP(=O)(O)OP(=O)(O)OC[C@H]1O[C@@H](n2cnc3c(N)ncnc32)[C@H](O)[C@@H]1OP(=O)(O)O
Briefly: purified protein. Format: biochemical, Cupriavidus necator. The conditions noted are these: 100 mM Gly, 50 mM potassium phosphate pH 8.0, 30 °C.

Substrate in data set [5]: C[C@H](O)[C@H](N)C(=O)O
Briefly: purified protein. Format: biochemical, Cupriavidus necator. The conditions noted are these: 50 mM potassium phosphate pH 8.0, 30 °C, no CoA.

Turning to `Cc1ncc(COP(=O)(O)O)c(C=O)c1O` [PLP], the “X-ray crystal structure, 1.8 Å” value on CnKBL is “only PLP is coordinated at the site by forming a Schiff base with the side chain”.

B1: CnKBL (Cupriavidus necator H16) (protein)
chain: T1 sequence (Q0K313 1-399)
notes: gene cloned in pET-28a (NcoI/XhoI), E. coli BL21(DE3), Ni-Sepharose and gel filtration; dimer; PLP on K246
Regarding B1, the Michaelis-Menten constant (Km) in “purified protein [1]” amounted to 13900 ± 520 µM; in “purified protein [2]”, 1240 ± 110 µM; in “purified protein [3]” it was 200 ± 56 µM; in “purified protein [4]”, 242.7 ± 10.4 µM; in the data set “purified protein [5]”, 420 ± 86 µM. For the same molecule, the kcat was 3.43 ± 0.036 s⁻¹ in the data set “purified protein [1]”; 0.00283 ± 0.0065 s⁻¹ in “purified protein [2]”; 0.00123 ± 7.17e-05 s⁻¹ in the data set “purified protein [3]”; 3.43 ± 0.036 s⁻¹ in “purified protein [4]”; 0.000778 ± 4.33e-05 s⁻¹ in the data set “purified protein [5]”. In addition, the kcat/Km was 2.33 M⁻¹ s⁻¹ in “purified protein [2]”, 6.17 M⁻¹ s⁻¹ in “purified protein [3]” and 1.83 M⁻¹ s⁻¹ in the data set “purified protein [5]”.

One may read the Km as the concentration of substrate that gives half-maximal velocity. A word on the kcat: it is the maximal rate divided by the concentration of active sites. Broadly, the kcat/Km is the second-order rate constant that governs catalysis at low substrate concentration.

The record behind these values is article PMC9814548, “Chemoenzymatic synthesis of 3-ethyl-2,5-dimethylpyrazine by L-threonine 3-dehydrogenase and 2-amino-3-ketobutyrate CoA ligase/L-threonine aldolase” (Communications Chemistry, 2021).
